Source: patent US6706266, “Oncostatin M antagonists” (SmithKline Beecham Corporation)
Where a chain is given by its changes, count along the chain named. Names and notes keep the numbering of the source. Values joined by “and” are separate entries in the source; they are usually repeats but may differ in a detail not shown here. Equal values may be shown once.

B1: OSM-GST mutant L14A (ligand)
chain: AAIGSCSKEYRVLAGQLQKQTDLMQDTSRLLDPYIRIQGLDVPKLREHCRERPGAFPSEETLRGLGRRGFLQTLNATLGCVLHRLADLEQRLPKAQDLERSGLNIEDLEKLQMARPNILGLRNNIYCMAQLLDNSDTAEPTKAGRGASQPPTPTPASDAFQRKLEGCRFLHGYHRFMHSVGRVFSKWGESPNRSRR
notes: Alanine mutant of m4; also called (7)L14A; 7 L14A; not shown: Its linker is left out
B2: OSM-GST mutant G120A (ligand, not shown: a dimerising Fc or GST; large carriers; small tags and cut ends)
chain: B1 chain with A14L, G120A
notes: Alanine mutant of m4; also called (20)G120; 20 G120A
B3: OSM-GST mutant D22A (ligand, not shown: a dimerising Fc or GST; large carriers; small tags and cut ends)
chain: B1 chain with A14L, D22A
notes: Alanine mutant of m4; also called (15)D22; 15 D22
B4: OSM-GST mutant G15A (ligand)
chain: B1 chain with A14L, G15A
notes: Alanine mutant of m4; also called (8)G15A; 8 G15A; not shown: Its linker is left out
B5: OSM-GST mutant L17A (ligand)
chain: B1 chain with A14L, L17A
notes: Alanine mutant of m4; also called (10)L17A; 10 L17A; not shown: Its linker is left out
B6: OSM-GST mutant Q16A (ligand)
chain: B1 chain with A14L, Q16A
notes: Alanine mutant of m4; also called (9)Q16A; 9 Q16A; not shown: Its linker is left out
B7: OSM-GST mutant E9A (ligand, not shown: a dimerising Fc or GST; large carriers; small tags and cut ends)
chain: B1 chain with E9A, A14L
notes: Alanine mutant of m4; also called (3)E9A; 3 E9A
B8: OSM-GST mutant D26A (ligand, not shown: a dimerising Fc or GST; large carriers; small tags and cut ends)
chain: B1 chain with A14L, D26A
notes: Alanine mutant of m4; also called (27)D26A; 27 D26A
B9: OSM-GST mutant M113A (ligand, not shown: a dimerising Fc or GST; large carriers; small tags and cut ends)
chain: B1 chain with A14L, M113A
notes: Alanine mutant of m4; also called (16)M113; 16 M113A
B10: OSM-GST mutant Q20A (ligand)
chain: B1 chain with A14L, Q20A
notes: Alanine mutant of m4; also called (13)Q20A; 13 Q20A; not shown: Its linker is left out
B11: OSM-GST mutant L119A (ligand, not shown: a dimerising Fc or GST; large carriers; small tags and cut ends)
chain: B1 chain with A14L, L119A
notes: Alanine mutant of m4; also called (19)L119A; 19 L119A
B12: OSM-GST mutant L13A (ligand)
chain: B1 chain with L13A, A14L
notes: Alanine mutant of m4; also called (6)L13A; 6 L13A; not shown: Its linker is left out
B13: wild type OSM-GST fusion (ligand)
chain: B1 chain with A14L
notes: pGEX-derived fusion; also called wt OSM-GST; GST-hOSM; not shown: glutathione S-transferase (GST) encoded by modified pGEX-3X (Pharmacia), N-terminal, up to the Factor Xa site region sho
B14: OSM-GST mutant K8A (ligand, not shown: a dimerising Fc or GST; large carriers; small tags and cut ends)
chain: B1 chain with K8A, A14L
notes: Alanine mutant of m4; also called (2)K8A; 2 K8A
B15: OSM-GST mutant N123A (ligand, not shown: a dimerising Fc or GST; large carriers; small tags and cut ends)
chain: B1 chain with A14L, N123A
notes: Alanine mutant of m4; also called (22)N123A; 22 N123A
B16: OSM-GST mutant K19A (ligand)
chain: B1 chain with A14L, K19A
notes: Alanine mutant of m4; also called (12)K19A; 12 K19A; not shown: Its linker is left out

The binders below were run against T1, gp130-Fc fusion protein (human, UniProt P40189 23-619) (assay: competition ELISA: OSM-GST titrated against plate-bound wt OSM for gp130-Fc; single experiment).
T1 construct: extracellular domain; not shown: Fc fragment of human IgG1
T1 sequence (looked up): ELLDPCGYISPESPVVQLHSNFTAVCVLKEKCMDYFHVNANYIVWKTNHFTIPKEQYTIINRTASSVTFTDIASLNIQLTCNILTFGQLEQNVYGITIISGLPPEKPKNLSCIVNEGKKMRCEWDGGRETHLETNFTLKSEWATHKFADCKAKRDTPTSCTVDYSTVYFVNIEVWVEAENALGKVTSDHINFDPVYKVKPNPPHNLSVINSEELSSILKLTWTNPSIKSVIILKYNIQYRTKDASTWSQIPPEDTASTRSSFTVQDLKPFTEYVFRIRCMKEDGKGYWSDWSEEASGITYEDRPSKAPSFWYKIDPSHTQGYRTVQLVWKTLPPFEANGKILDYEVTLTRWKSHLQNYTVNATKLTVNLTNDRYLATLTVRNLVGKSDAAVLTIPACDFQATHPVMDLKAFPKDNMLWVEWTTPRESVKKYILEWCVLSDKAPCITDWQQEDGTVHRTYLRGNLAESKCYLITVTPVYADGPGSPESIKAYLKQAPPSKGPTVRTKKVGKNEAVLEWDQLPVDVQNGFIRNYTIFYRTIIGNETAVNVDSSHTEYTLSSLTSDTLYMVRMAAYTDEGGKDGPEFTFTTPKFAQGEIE
Procedure: (§1) Plates were washed (×6 in PBS 0.05% tween 20, using Skatron Plate washer), tapped dry and blocked to reduce non-specific binding (200 µl/well, 1% BSA/PBS). Following 1 h incubation (room temperature on a shaking platform) the plates were tapped dry and wild type (wt) or mutant OSM-GST from Example 9b added (50 µl/well, 20–0.002 µg/ml, titrated in 1%BSA/PBS). As a positive control polyclonal anti-human OSM antibody (R&D Systems) was also tested (20–0.02 µg/ml). […] Following a 5 h incubation (room temperature on a shaking platform) the plates were washed (×6) and developed using ELISA Amplification System (Life Technologies) as manufacturer's instructions and the OD measured at 490 nm.

IC50	Binder
0.66 µg/mL and 0.47 µg/mL and 0.412 µg/mL	B1
3.65 µg/mL and 2.68 µg/mL and 2.95 µg/mL	B2
0.04 µg/mL and 0.08 µg/mL and 0.092 µg/mL	B3
0.09 µg/mL and 0.203 µg/mL and 0.171 µg/mL	B4
2.21 µg/mL and 1.9 µg/mL and 1.35 µg/mL	B5
> 10 µg/mL	B6
0.208 µg/mL and 0.163 µg/mL and 0.097 µg/mL	B7
0.17 µg/mL and 0.28 µg/mL and 0.481 µg/mL	B8
0.511 µg/mL and 0.199 µg/mL and 0.252 µg/mL	B9
4.13 µg/mL and 5.57 µg/mL and 4.1 µg/mL and 6.2 µg/mL	B10
0.272 µg/mL and 0.266 µg/mL and 0.227 µg/mL	B11
2.96 µg/mL and 1.99 µg/mL and 2.64 µg/mL	B12

What follows are binders tested against T2, gp130 on HepG2 B6 cells (UniProt P40189 23-918, limits assumed) (assay: cell-based or functional assay).
T2 sequence (looked up): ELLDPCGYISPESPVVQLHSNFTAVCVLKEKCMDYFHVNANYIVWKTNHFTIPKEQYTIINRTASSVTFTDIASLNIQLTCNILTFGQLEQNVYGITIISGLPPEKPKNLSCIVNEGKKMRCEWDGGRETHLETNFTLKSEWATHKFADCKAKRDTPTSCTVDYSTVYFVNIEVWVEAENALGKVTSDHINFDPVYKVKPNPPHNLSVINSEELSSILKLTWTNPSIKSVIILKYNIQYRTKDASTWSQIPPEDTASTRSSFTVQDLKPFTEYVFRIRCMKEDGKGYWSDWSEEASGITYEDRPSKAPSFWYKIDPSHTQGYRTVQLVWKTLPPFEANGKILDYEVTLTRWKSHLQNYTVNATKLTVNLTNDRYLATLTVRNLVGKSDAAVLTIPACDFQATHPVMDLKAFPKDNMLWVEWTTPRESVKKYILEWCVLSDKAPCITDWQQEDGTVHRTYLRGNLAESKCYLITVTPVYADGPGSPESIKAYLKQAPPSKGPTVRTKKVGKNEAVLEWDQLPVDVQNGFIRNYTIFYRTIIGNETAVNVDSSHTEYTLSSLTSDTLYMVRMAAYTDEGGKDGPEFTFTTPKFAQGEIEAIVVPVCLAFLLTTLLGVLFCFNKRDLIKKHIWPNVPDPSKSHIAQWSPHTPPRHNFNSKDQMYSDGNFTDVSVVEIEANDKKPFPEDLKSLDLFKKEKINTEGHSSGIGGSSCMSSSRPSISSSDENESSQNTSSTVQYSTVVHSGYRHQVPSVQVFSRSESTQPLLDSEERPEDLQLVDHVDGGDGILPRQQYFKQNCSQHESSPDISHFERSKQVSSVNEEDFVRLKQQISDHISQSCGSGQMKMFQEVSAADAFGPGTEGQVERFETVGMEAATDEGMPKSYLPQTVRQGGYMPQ

sPAP HepG2 B6 assay: Expt 1 % (EC50 as % of wild type EC50) [%]	sPAP HepG2 B6 assay: Expt 1 EC50 [µg/mL]	sPAP HepG2 B6 assay: Expt 2 % (EC50 as % of wild type EC50) [%]	sPAP HepG2 B6 assay: Expt 2 EC50 [µg/mL]	sPAP HepG2 B6 assay: Mean % of wild type EC50 [%]	Binder
100	0.024	100	0.032	100	B13
81	0.0194	77	0.0249	79	B1
66	0.016	38	0.0125	52	B14
152	0.0367	50	0.016	101	B3
87	0.021	55	0.0178	71	B4
301	0.0727	174	0.056	238	B5
98	0.0236	27	0.0089	62.5	B7
81	0.0195	79	0.0255	80	B8
106	0.0256	78	0.025	92	B9
157	0.0379	154	0.0497	156	B15
115	0.0278	72	0.023	93.5	B11
98	0.0236	37	0.0119	67.5	B16
269	0.0657	171	0.0549	220	B12

Each binder was assayed against T1, gp130-Fc fusion protein (assay: competition ELISA: OSM-GST titrated against plate-bound wt OSM for gp130-Fc; mean).
Procedure: as §1

IC50 [µg/mL]	Binder
0.139	B13
0.514	B1
0.138	B14
3.09	B2
0.071	B3
0.155	B4
1.82	B5
0.156	B7
0.31	B8
0.321	B9
2.96	B15
5	B10
0.255	B11
0.116	B16
2.53	B12
